From patent US11597760 (dated 2023)

How the values were obtained:
human C5 [1] = target: human C5 (human); assay: SPR, pH 7.4, 37C
human C5 [2] = target: human C5 (human); assay: SPR, pH 5.8, 37C
human C5 [3] = target: human C5 (human); assay: SPR, pH 5.8, 37C; remark: listed apart in the source
human C5 [4] = target: human C5 (human); assay: SPR, pH 7.4, 37C; remark: listed apart in the source

Binder | Kd (human C5 [1]) | Kd (human C5 [2]) | Kd (human C5 [3]) | Kd (human C5 [4])
305LO16-SG422 (antibody, V domains shown) VH: QVQLVESGGGLVQPGRSLRLSCAASGFTVHSSYYMAWVRQAPGKGLEWVGAIFTGSGAEYKAEWVKGRFTISRDNSKNTLYLQMNSLRAEDTAVYYCASDAGYDYPTHAMHYWGRGTLVTVSS VL: DIQMTQSPSSLSASVGDRVTITCRASQGISSSLAWYQQKPGKAPKLLIYGASETESGVPSRFSGSGSGTDFTLTISSLQPEDFATYYCQNTKVGSSYGNTFGGGTKVEIK | 0.321 nM | 79.5 nM |  | 
CFA0307 (antibody, V domains shown) VH: QSLEESGGGLVKPGASLTLTCKASGIDFSNFYYICWVRQAPGKGLDLIACIYTVSGYTYYASWAKGRLTISKTSSTTVTLQMTSLTAADTATYFCARDLHAGITNLWGPGTLVTVSS VL: AIEMTQTPFSVSAAVGGTVTIKCQASQNIYSNLAWYQQKPGQRPKLLIYGASNLESGVPSRFKGSGSGTEYTLTISDLECADAATYYCLQGYSYSNVDDAFGGGTEVVVK |  |  | 164 nM | 8.13 nM
CFA0330 (antibody, V domains shown) VH: QSLEESGGDLVEPGASLTLTCTASGFSWNSGYDMCWVRQAPGKGLEWIACIYTGSSANTAYANWAKGRFTISKTSSTTVTLQMTGLTAADTATYFCARHDDYFFDLWGPGTLVTVSS VL: DVVMTQTPASVSESVGGTVTINCQASQSIGNNLAWYQQKPGQPPKLLIYDASNLASGVPSRFKGSRSGTEPTLTNTLTISGVQCADVATYYCQSGWYGNSYVAAFGGGTEVVVK |  |  | 0.184 nM | 0.122 nM
305LO5 (antibody, V domains shown) VH: QVQLVESGGGLVQPGGSLRLSCAASGFTSHSSYYVAWVRQAPGKGLEWVGAIYTGSGATYKASWAKGRFTISKDTSKNQVVLTMTNMDPVDTATYYCASDGGYDYPTHAMHYWGQGTLVTVSS VL: DVVMTQSPSSLSASVGDRVTITCQASQNIGSSLAWYQQKPGQAPRLLIYGASKTHSGVPSRFSGSGSGTDFTLTISSLQPEDVATYYCQSTKVGSSYGNHFGGGTKVEIK |  |  | 14 nM | 0.471 nM
305LO23-SG115 (antibody, V domains shown) VH: QVQLVESGGGLVQPGGSLRLSCAASGFTVHSSYYMAWVRQAPGKGLEWVSGIFTGSGATYKAEWAKGRVTISKDTSKNQVVLTMTNMDPVDTATYYCASDAGYDYPTHAMHYWGQGTLVTVSS VL: DIQMTQSPSSLSASVGDRVTITCRASQGISSSLAWYQQKPGQAPRLLIYGASTTQSGVPSRFSGSGSGTDFTLTISSLQPEDFATYYCQNTKVGSSYGNTFGGGTKVEIK | 0.277 nM | 64.1 nM |  | 
305LO20-SG422 (antibody, V domains shown) VH: QVQLVESGGGLVQPGGSLRLSCAASGFTVHSSYYMAWVRQAPGKGLEWVGAIFTGSGAEYKAEWAKGRVTISKDTSKNQVVLTMTNMDPVDTATYYCASDAGYDYPTHAMHYWGQGTLVTVSS VL: DIQMTQSPSSLSASVGDRVTITCRASQGISSSLAWYQQKPGQAPRLLIYGASETESGVPSRFSGSGSGTDFTLTISSLQPEDFATYYCQNTKVGSSYGNTFGGGTKVEIK | 0.349 nM | 59.9 nM |  | 
305LO20-SG115 (antibody, V domains shown) VH: QVQLVESGGGLVQPGGSLRLSCAASGFTVHSSYYMAWVRQAPGKGLEWVGAIFTGSGAEYKAEWAKGRVTISKDTSKNQVVLTMTNMDPVDTATYYCASDAGYDYPTHAMHYWGQGTLVTVSS VL: DIQMTQSPSSLSASVGDRVTITCRASQGISSSLAWYQQKPGQAPRLLIYGASETESGVPSRFSGSGSGTDFTLTISSLQPEDFATYYCQNTKVGSSYGNTFGGGTKVEIK | 0.324 nM | 58.1 nM |  | 
CFA0341 (antibody, V domains shown) VH: QSVEESGGRLVTPGTPLTLTCTVSGIDLSSYTMGWVRQAPGKGLECIGYIHSFGSTYYASWAKGRFTISKTSTTVDLEITSPTTEDTATYFCARDVGGSSGWDLWGQGTLVTVSS VL: DVVMTQTPSSVSAAVGGTVTIKCQASENIYSNLAWYQQKPGQPPKRLIYDASDLASGVPSRFSGSGYGTQFTLTISGVQCEDAATYYCQANYDSTSSSFGNVFGGGTEVVVK |  |  | 0.0595 nM | 0.155 nM

More lines, now with the values ahead:

Kd (human C5 [1]) | Kd (human C5 [2]) | Kd (human C5 [3]) | Kd (human C5 [4]) | Binder
 |  | 246 nM | 3.91 nM | CFA0538 (antibody, V domains shown) VH: QSVEESGGRLVTPGTPLTLTCTASGFSLSSYYMNWVRQAPGKGLEWIGMIYGSGATYYASWAKGRFTISKTSSTTVDLKMTSLTTEDTATYFCARQIYSGDNNDNFWGPGTLVTVSS VL: AYDMTQTPASVEVAVGGTVTINCQASESISNWLAWYQQKPGQRPKLLIYRASTLASGVSSRFKGSGSGTQFTLTISGVECDDAATYYCQQDYSSSNVDNTFGGGTTVVVE
 |  | 174 nM | 3.56 nM | CFA0501 (antibody, V domains shown) VH: QSVEESGGRLVTPGTPLTLTCTASGFSLSSYYMNWVRQAPGKGLEWIGMIYGSGATYYASWAKGRFTISKTSSTTVDLKMTSLTTEDTATYFCARQIYSGDNNDNFWGPGTLVTVSS VL: AYDMTQTPASVEVAVGGTVTINCQASESISNWLAWYQQKPGQRPKLLIYRASTLASGVSSRFKGSGSGTQFTLTISGVECDDAATYYCQQDYSSSNVDNTFGGGTKVVVE
 |  | 33.3 nM | 1.71 nM | CFA0666 (antibody, V domains shown) VH: QSVEESGGRLVTPGTPLTLTCTVSGFSLSTYAMGWVRQAPGKGLEWIGTIDTGDNSFYANWAKGRFTISKTSTTVDLKITSPTAEDTATYFCARNDGSVYNLFNLWGPGTLVTVSS VL: DVVMTQTPASVSAAVGGTVTIKCQASENIYSALSWYQQKPGLRPRLLIYYASTLASGVPSRFKGSRSGTEFTLTISDLECADAATYYCQQYYDINSVDNTFGGGTKVVVE
 |  | 17 nM | 1.08 nM | CFA0675 (antibody, V domains shown) VH: QSVEESGGRLVTPGTPLTLTCTVSGFSLSTYAMGWVRQAPGKGLEWIGTIDTGDNSFYANWAKGRFTISRTSTTVDLKITSPTAEDTATYFCARNDGSVYNLFNLWGPGTLVTVSS VL: DVVMTQTPASVSAAVGGTVTIKCQASENIYSALSWYQQKPGLRPRLLIYYASTLASGVPSRFKGSRSGTEFTLTISDLECADAASYYCQQYYDINSVDNTFGGGTKVVVE
 |  | 138 nM | 0.351 nM | CFA0672 (antibody, V domains shown) VH: QSVEESGGRLVTPGTPLTLTCTASGFSLSGNAINWVRQAPGKGLEWIGCIYTGSDTTYYATWAKGRFTISKTSTTVDLKIASPTTEDTATYFCARGSGLWGPGTLVTVSS VL: DVVMTQTPASVSAPVGGTVTIKCQASQNIYSLLAWYQQKPGQPPKLLIYHTSDLASGVPSRFRGSGSGTEFTLTISDLECADAATYYCQCTAYGSSDVGGTFGGGTTVVVE
 |  | 82.1 nM | 5.93 nM | CFA0599 (antibody, V domains shown) VH: QSVEESGGRLVTPGTPLTLTCTVSGLSLSDNTMTWVRQAPGKGLEWIGIISFGGDAYYASWAKGRFPISKTSTTVDLRITSPTTEDTATYFCARVGAGNIFWYFDLWGPGTLVTVSS VL: AYDMTQTPASVEVSVGGTVTIKCQASESIYSALAWYQQKPGQPPKLLIYSASTLASGVPSRFKGSGSGTEYTLTISDLECADAATYYCQQYYSSTNVHNSFGGGTTVVVE
 |  | 75.2 nM | 8.99 nM | CFA0366 (antibody, V domains shown) VH: QSLEESGGDLVKPGASLSLTCTAAGLDFSSSYYMCWVRQAPGKGLEWIACIYAGSSGIIYYANWAKGRFTISRPSSTTVTLQMTSLTAADTATYFCATYPTYGDGGHAFNLWGPGTLVTVSS VL: AQVLTQTPSSVSAAVGGTVTINCQSSQSVYSSDYLSWYQQKPGQPPKLLIYEASKLASGVPPRFSGSGSGTQFTLTISGVQCDDAATYYCQGTYYSSGWYFAFGGGTEVVVK
